Measurements published in article PMC6160412 (2018).

Key:
Experiment in all cases: SPR
[1] = target: Neurexin-1β (+S4) (Mus musculus, UniProt P0DI97)
[2] = target: human LRRTM2 LRR domain, F357Y mutant (human, UniProt O43300 34-371, F357Y)
[3] = target: human LRRTM2 LRR domain, D352A mutant (human, UniProt O43300 34-371, D352A)

Sequence of Neurexin-1β (+S4) (P0DI97 47-392): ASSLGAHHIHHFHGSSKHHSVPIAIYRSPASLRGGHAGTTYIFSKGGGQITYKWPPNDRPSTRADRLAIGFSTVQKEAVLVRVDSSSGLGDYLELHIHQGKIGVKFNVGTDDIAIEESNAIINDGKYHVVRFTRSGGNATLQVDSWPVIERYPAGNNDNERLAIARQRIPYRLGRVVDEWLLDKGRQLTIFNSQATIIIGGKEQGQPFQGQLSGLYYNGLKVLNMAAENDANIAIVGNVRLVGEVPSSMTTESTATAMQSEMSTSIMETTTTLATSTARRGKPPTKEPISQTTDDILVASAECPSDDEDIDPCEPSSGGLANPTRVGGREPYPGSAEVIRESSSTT

Kd [1] [µM] | Kd [2] [µM] | Kd [3] [µM] | Binder
> 80 |  |  | LRRTM2 (protein) CPPKCRCEKLLFYCDSQGFHSVPNATDKGSLGLSLRHNHITALERDQFASFSQLTWLHLDHNQISTVKEDAFQGLYKLKELILSSNKIFYLPNTTFTQLINLQNLDLSFNQLSSLHPELFYGLRKLQTLHLRSNSLRTIPVRLFWDCRSLEFLDLSTNRLRSLARNGFAGLIKLRELHLEHNQLTKINFAHFLRLSSLHTLFLQWNKISNLTCGMDWTWSTLEKLDLTGNEIKAIDLTVFETMPNLKILLMDNNKLNSLDSKILNSLKSLTTVGLSGNLWECSPRVCALASWLGSFQGRWEHSILCHSPDHTQGEDILDAVHGFQLCWNLSTTVTAMATTYRDPTTEYTKISSSSYHVGDKEIPTTAGIAVTTEEHFPEPDNAIFTQRVITGTMALLFSFFFIIFIVFISRKCCPPTLRRIRQCSMIQNHRQLRSQTRLHMSNMSDQGPYNEYEPTHEGPFIIINGYGQCKCQQLPYKECEV
 | 19.3 | > 34 | human Nrxn1β LNS domain (–S4), wild type (domain or fragment) not shown
